Experimental findings from the supplement of paper PMC10567573 are described below.

± gives the standard deviation.

The nature of this data set: protein stability index of a GFP-peptide fusion (GPS, HEK-293T) (PSI 1-6); higher = more stable. To be noted: c terminus: a fixed tail appended.
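Note: 24-mer peptide tiles fused after GFP, lentivirally expressed, FACS-sorted into six equal bins by GFP/DsRed ratio, decoded by Illumina sequencing, PSI is the read-weighted mean bin number.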

Turning to TGTPLVAGSPIRHENAVQGSAVEV [ISL2], the protein stability index reads like this: (treatment: DMSO) 4.48 ± 0.22; (treatment: MLN4924 1 uM, 8 h) 4.45 ± 0.18.
The matching figures for LGAEESLGLLDDYLEVAKHFKPHG [ATF4]: 3.24 ± 0.33 and 3.56 ± 0.36.
The matching figures for YYFIMACDQYSCALTGPVVDIVTG [DHCR7]: 3.35 ± 0.17 and 3.26 ± 0.53.
Consider KNLYKLASQCCGVHVISLHIWELS [PTGFR], for which the protein stability index by setting is: (treatment: DMSO) 2.97 ± 0.15; (treatment: MLN4924 1 uM, 8 h) 3.06 ± 0.48.
The matching figures for PETLTNLRKGYLFMYNLVQFLGFS [HACD3]: 2.34 ± 0.56 and 2.04 ± 0.34.
Regarding HEEEVKGLQAQIASSGLTVEVDAP [KRT18], the protein stability index was 5.51 ± 0.23 (treatment: DMSO) and 5.45 ± 0.27 (treatment: MLN4924 1 uM, 8 h).
In the same order, the values of EAQRASFLQNAVLAYVQASPVRTL [LRRC45] are 2.41 ± 0.29 and 2.3 ± 0.26.
In the case of NFCKEQAARISNKGKFSTDTKGKP [ZC2HC1A], the protein stability index stood at 3.78 ± 0.2 (treatment: DMSO) and 4.27 ± 0.31 (treatment: MLN4924 1 uM, 8 h).
With PRPGTGQSRSFRILAHLTGTEFMQ [PDLIM7], the protein stability index (treatment: DMSO) worked out at 2.47 ± 0.046 and the protein stability index (treatment: MLN4924 1 uM, 8 h) was 2.83 ± 0.27.
In the same order, the values of GSKQYSAAIAFTLALFSHLVNHVN [SMG5] are 3.39 ± 0.34 and 3.14 ± 0.43.
In the same order, the values of LPLGIKVYEDETKVVHAVDGTAEN [PALM] are 5.02 ± 0.17 and 5.03 ± 0.23.
The matching figures for NWPKNSNGVTQKASAPTYPSLYSS [NANOGP8]: 3.53 ± 0.21 and 3.65 ± 0.25.
Consider TRKHAHHCHKRRTRSCSSASSRSQ [CLK3], for which the protein stability index (treatment: DMSO) is 4.65 ± 0.2 and the protein stability index (treatment: MLN4924 1 uM, 8 h) was 4.82 ± 0.19.
For LMFFIMAAMLSMVKYNSCADRPFS [POMT2], the protein stability index was determined as 3.19 ± 0.7 (treatment: DMSO) and 3.06 ± 0.32 (treatment: MLN4924 1 uM, 8 h).
Consider ALVSHPEVPLISFTGSQPTAERIT [ALDH8A1], for which the protein stability index reads like this: (treatment: DMSO) 3.87 ± 0.2; (treatment: MLN4924 1 uM, 8 h) 3.87 ± 0.31.
With PLTGFLTTVPDGPTQLRALNLTEG [TNXB], the protein stability index runs as follows: (treatment: DMSO) 3.81 ± 0.26; (treatment: MLN4924 1 uM, 8 h) 3.55 ± 0.22.
The matching figures for EGLLRFSSWPFSIQDVVQPLTLQV [AUP1]: 2.85 ± 0.76 and 2.98 ± 1.
The matching figures for RTTRGLDPLFGMCEKFLQEVDFFQ [INTS4]: 2.05 ± 0.37 and 2.23 ± 0.26.
For the sequence HSYNVTQRRPRVLSCLHSVCEQCL [RNF208], the protein stability index (treatment: DMSO) is 2.87 ± 0.17 and the protein stability index (treatment: MLN4924 1 uM, 8 h) turned out to be 3.16 ± 0.33.
In the same order, the values of LGKTNAKAVSEMRQKIWNNMPKDH [DYNC2LI1] are 3.38 ± 0.23 and 3.62 ± 0.37.
As for FHCLWDDSFPEGPERLHAIKEQLI [HDAC6], the protein stability index amounted to 2.47 ± 0.26 (treatment: DMSO) and 2.41 ± 0.33 (treatment: MLN4924 1 uM, 8 h).
For PAQVHSSLSAGEKPGFLAPRDLPK [RASAL3], the protein stability index turned out to be 4.63 ± 0.34 (treatment: DMSO) and 4.77 ± 0.41 (treatment: MLN4924 1 uM, 8 h).
The matching figures for GSAYLFVESSLDKVVLSDAYAHPQ [TRADD]: 2.22 ± 0.35 and 2.37 ± 0.54.
In the same order, the values of VTGLNPKTKYILLMDIVPADDHRY [TBX5] are 2.63 ± 0.44 and 1.95 ± 0.53.
For LIILWKNGERESGLRSLRLFQKLE [WDR41], the protein stability index turned out to be 2.15 ± 0.26 (treatment: DMSO) and 2.5 ± 0.49 (treatment: MLN4924 1 uM, 8 h).
Regarding FIVDILQFLDIGPDVTRVGLLQYG [MATN2], the protein stability index reads like this: (treatment: DMSO) 3.11 ± 0.51; (treatment: MLN4924 1 uM, 8 h) 2.94 ± 0.82.
On to DQFDKDLPVYLKKDPAYFYGYVYF [DENND6A], for which the protein stability index is, setting by setting: (treatment: DMSO) 2.46 ± 0.71; (treatment: MLN4924 1 uM, 8 h) 2.19 ± 0.59.
The matching figures for HVFSELWDLSEAWMQANYDPLSDS [ELOA2]: 2.6 ± 0.32 and 2.63 ± 0.31.
For LGAVAGLALGPILRLYKHNSQALL [MFSD9], the protein stability index reads like this: (treatment: DMSO) 2.59 ± 1.1; (treatment: MLN4924 1 uM, 8 h) 2.43 ± 0.15.
Regarding SGCLPPEPLFEAGDATLASDLQDW [FOXJ1], the protein stability index amounted to 4.82 ± 0.36 (treatment: DMSO) and 4.74 ± 0.18 (treatment: MLN4924 1 uM, 8 h).
In the case of VIATATVYFKRFYARYSLKSIDPV [CCNC], the protein stability index (treatment: DMSO) was 2.8 ± 0.74 and the protein stability index (treatment: MLN4924 1 uM, 8 h) was 2.8 ± 0.64.
In the case of DGTAENGIHPLSSSEVDELIHKAD [PALM], the protein stability index was found to be 5.38 ± 0.2 (treatment: DMSO) and 5.35 ± 0.42 (treatment: MLN4924 1 uM, 8 h).
The matching figures for TRWLNSGRGDEASEEGQNGSSPKS [ADD1]: 5.4 ± 0.12 and 5.44 ± 0.24.
As to DHVDLSLSCTLVPRSGEQAEGSPG [CDKN1A], the protein stability index came to 4.91 ± 0.17 (treatment: DMSO) and 5.08 ± 0.23 (treatment: MLN4924 1 uM, 8 h).
In the same order, the values of YSYASTHRLMTDARRRVCHTEDFQ [CPXM2] are 2.91 ± 0.37 and 3.44 ± 0.36.
Consider TFGDHHKDRRFAYGRSDVVVLCFS [RHOBTB1], for which the protein stability index runs as follows: (treatment: DMSO) 2.38 ± 0.53; (treatment: MLN4924 1 uM, 8 h) 2.43 ± 0.55.
